Where two headings read alike, the source gives them in different places.
Tests used:
[1] = biological target: T1, 6506GJ130-1A: Human NKP46 Recombinant Protein (His) (human, UniProt O76036 22-258, limits assumed); test: SPR, Biacore 8K; reference 1-2
T1 construct: also called human NKp46 protein; not shown: His tag

[2] = biological target: T1, 6506GJ130-1A: Human NKP46 Recombinant …; test: SPR, Biacore 8K, antibody captured on Protein A chip, NKp46 as analyte
[3] = biological target: T1, 6506GJ130-1A: Human NKP46 Recombinant …; test: as above; remark: listed apart in the source
[4] = biological target: T1, 6506GJ130-1A: Human NKP46 Recombinant …; test: SPR, Biacore 8K; reference 2-3
[5] = biological target: T1, 6506GJ130-1A: Human NKP46 Recombinant …; test: SPR, Biacore 8K; reference 2-5
[6] = biological target: T1, 6506GJ130-1A: Human NKP46 Recombinant …; test: competition ELISA, NKp46-His coated; no competitor (Control)
[7] = biological target: T1, 6506GJ130-1A: Human NKP46 Recombinant …; test: competition ELISA, NKp46-His coated; competitor 1-2 at 20 ug/ml
[8] = biological target: T1, 6506GJ130-1A: Human NKP46 Recombinant …; test: competition ELISA, NKp46-His coated; competitor 1-8 at 20 ug/ml
[9] = biological target: T1, 6506GJ130-1A: Human NKP46 Recombinant …; test: competition ELISA, NKp46-His coated; competitor 2-1 at 20 ug/ml
[10] = biological target: T1, 6506GJ130-1A: Human NKP46 Recombinant …; test: competition ELISA, NKp46-His coated; competitor 2-2 at 20 ug/ml
[11] = biological target: T1, 6506GJ130-1A: Human NKP46 Recombinant …; test: competition ELISA, NKp46-His coated; competitor 2-3 at 20 ug/ml
[12] = biological target: T1, 6506GJ130-1A: Human NKP46 Recombinant …; test: competition ELISA, NKp46-His coated; competitor 2-5 at 20 ug/ml
[13] = biological target: T1, 6506GJ130-1A: Human NKP46 Recombinant …; test: competition ELISA, NKp46-His coated; competitor 2-7 at 20 ug/ml
[14] = biological target: T1, 6506GJ130-1A: Human NKP46 Recombinant …; test: competition ELISA, NKp46-His coated; competitor 1-10 at 20 ug/ml
[15] = biological target: T1, 6506GJ130-1A: Human NKP46 Recombinant …; test: competition ELISA, NKp46-His coated; competitor 2-10 at 20 ug/ml
[16] = biological target: T1, 6506GJ130-1A: Human NKP46 Recombinant …; test: competition ELISA, NKp46-His coated; competitor 1-4-2 at 20 ug/ml

T1 sequence (O76036 22-258 limits assumed): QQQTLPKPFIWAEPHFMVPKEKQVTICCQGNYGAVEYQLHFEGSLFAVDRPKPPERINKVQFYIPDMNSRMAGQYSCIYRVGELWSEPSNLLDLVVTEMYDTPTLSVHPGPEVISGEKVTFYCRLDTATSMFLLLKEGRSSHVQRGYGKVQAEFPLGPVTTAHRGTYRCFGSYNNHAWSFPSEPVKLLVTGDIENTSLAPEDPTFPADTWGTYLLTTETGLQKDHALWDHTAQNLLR

Binder | fold change of KD against the unhumanized antibody [1] | Kd [2] | Kd [3] | koff [3] | kon [3] | fold change of KD against the unhumanized antibody [4] | fold change of KD against the unhumanized antibody [5] | ELISA signal [6] | ELISA signal [7] | ELISA signal [8] | ELISA signal [9] | ELISA signal [10] | ELISA signal [11] | ELISA signal [12] | ELISA signal [13] | ELISA signal [14] | ELISA signal [15] | ELISA signal [16]
Hu 1-2 (antibody, V domains shown, Humanized form of 1-2; also called humanized 1-2) VH: QVQLVQSGAEVKKPGASVKVSCKASGYTFTDYYLNWVRQAPGQGLEWIGDIDPHNAGTSYNQKFKDRVTMTVDTSTSTVYMELSSLRSEDTAVYYCARFPIYYSGSSPMDYWGQGTLVTVSS VL: DIQMTQSPSSLSASVGDRVTITCRTNENIFSYLAWYQQKPGKAPKLLIYNAKTLAEGVPSRFSGSGSGTDFTLTISSLQPEDFATYYCQHHYGTPYTFGGGTKLEIK | ≤ 2 fold | 0.42 to 8.7 nM | 8.66 nM | 0.000118 s⁻¹ | 13700 M⁻¹ s⁻¹ | – | – | – | – | – | – | – | – | – | – | – | – | –
Hu 2-3 (antibody, V domains shown, Humanized form of 2-3; also called humanized 2-3) VH: QVQLVQSGAEVKKPGASVKVSCKASGYTFTSYWMNWVRQAPGQGLEWIGMIHPNSDITNYNEKFKSRVTMTVDTSTSTVYMELSSLRSEDTAVYYCARHGRFDYWGQGTTVTVSS VL: DIQMTQSPSSLSASVGDRVTITCRASQDIGSSLNWLQQKPGKAPKRLIYATSSLDAGVPKRFSGSGSGTDYTLTISSLQPEDFATYYCLQYASSPFTFGGGTKLEIK | – | 0.42 to 8.7 nM | 0.421 nM | 0.000138 s⁻¹ | 328000 M⁻¹ s⁻¹ | ≤ 2 fold | – | – | – | – | – | – | – | – | – | – | – | –
Hu 2-5 (antibody, V domains shown, Humanized form of 2-5; also called humanized 2-5) VH: QVQLQESGPGLVKPSQTLSLTCTVSGYSITSDDYWNWIRQPPGKGLEWIGYISYEGSNNYNPSLKNRVTISRDTSKNQFSLKLSSVTAADTAVYYCARLGYPAMDAWGQGTLVTVSS VL: DIQMTQSPSSLSASVGDRVTITCKASQDINSYLSWFQQKPGKAPKSLIYRANRLVDGVPSRFSGSGSGTDYTLTISSLQPEDFATYYCLQYDEFPWTFGGGTKLEIK | – | – | 3.83 nM | 7.05e-05 s⁻¹ | 18400 M⁻¹ s⁻¹ | – | ≤ 2 fold | – | – | – | – | – | – | – | – | – | – | –
28E10B12 (2-3) (antibody, IgG4, V domains shown, Hybridoma clone; made as mouse/human chimeric IgG4) VH: QVQLQQPGAELVKPGASVKLSCKASGYTFTSYWMNWVKQRPGQGLEWIGMIHPNSDITNYNEKFKSQATLTVDKSSSTAYMQLSSLTSEDSAVYYCARHGRFDYWGQGTTLTVSS VL: DIQMTQSPSSLSASLGERVTLTCRASQDIGSSLNWLQQEPDGTIKRLIYATSSLDSGVPKRFSGSRSGSDYSLTISSLESEDFVDYYCLQYASSPFTFGSGTKLEIK | – | 0.24 to 30 nM | 0.244 nM | 0.000136 s⁻¹ | 555000 M⁻¹ s⁻¹ | – | – | 1.38 | 1.24 | 1.43 | 0.649 | 0.16 | 0.105 | 1.43 | 0.2 | 0.408 | 0.173 | 1.09
